Laboratory results from patent US20200399386A1 (CELGENE, published 2020).

T1: human BCMA (human, UniProt Q02223 1-184)
T1 construct: whole, on cells; Transfected (C6-BCMA) and endogenous (myeloma lines) forms are treated as the same protein on cells; also called B-cell maturation antigen; TNFRSF17
T1 sequence (looked up): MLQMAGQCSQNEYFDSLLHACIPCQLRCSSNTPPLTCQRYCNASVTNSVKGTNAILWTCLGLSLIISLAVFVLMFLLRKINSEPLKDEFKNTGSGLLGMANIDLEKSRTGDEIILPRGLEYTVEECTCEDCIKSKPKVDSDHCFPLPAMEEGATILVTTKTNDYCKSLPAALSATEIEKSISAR

T2: TACI (UniProt O14836 1-293, limits assumed)
T2 construct: whole, on cells
T2 sequence (looked up): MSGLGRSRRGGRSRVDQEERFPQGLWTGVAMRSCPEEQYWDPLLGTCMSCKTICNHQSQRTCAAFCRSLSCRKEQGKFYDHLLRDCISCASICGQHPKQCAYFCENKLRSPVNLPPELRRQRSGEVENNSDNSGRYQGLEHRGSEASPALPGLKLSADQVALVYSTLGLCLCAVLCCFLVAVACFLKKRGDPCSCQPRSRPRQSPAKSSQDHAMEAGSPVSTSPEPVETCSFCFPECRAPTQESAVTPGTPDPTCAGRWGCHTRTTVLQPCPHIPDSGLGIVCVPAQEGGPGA

T3: BAFF receptor (UniProt Q96RJ3 1-184, limits assumed)
T3 construct: whole, on cells
T3 sequence (looked up): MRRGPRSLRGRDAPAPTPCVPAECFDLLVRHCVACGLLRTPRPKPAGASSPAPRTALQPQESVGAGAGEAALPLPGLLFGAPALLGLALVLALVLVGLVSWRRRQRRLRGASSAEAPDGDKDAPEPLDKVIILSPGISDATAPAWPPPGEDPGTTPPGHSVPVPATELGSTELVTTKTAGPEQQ

T4: human TNFRSF12A (human, UniProt Q9NP84 28-129)
T4 construct: whole, on cells; also called TWEAKR
T4 sequence (looked up): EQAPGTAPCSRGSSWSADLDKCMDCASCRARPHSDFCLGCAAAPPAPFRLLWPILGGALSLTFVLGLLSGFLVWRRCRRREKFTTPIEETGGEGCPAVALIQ


Tests used:
[1] = biological target: T1, human BCMA; experiment: flow cytometry on NCIH929 cells
Description: (§1) FACS Analysis: FACs antibodies used in this study include: 1) LS-C106982-100 Mouse Monoclonal to Human TNFRSF12A-R-Phycoerythrin (PE) (LifeSpan BioSciences, Inc.); 2) EM901 has been previously characterized as a BCMA-binding antibody (Mab42; International Application Number WO2017/021450); 3) Ebiosciences anti-human IgG Fey-specific, labeled with PE; 4) Human IgG isotype control; 5) Anti-TACI antibody [1A1](Abcam); 6) BAFF Receptor antibody 8A7 (ThermoFisher); 7) BCMA antibody 19F2 (BioLegend). Each cell type (75,000 cells/well) was incubated with primary antibodies in FACs buffer (PBS containing 0.2% BSA) for 25 min in a 96 well plate. Cells were washed once with FACs buffer and incubated with 1:100 dilution secondary antibody for 25 min. After washing once, cells were fixed for 10 min with 1% paraformaldehyde, washed with FACs buffer and resuspended in 100 μL FACs buffer. Labeled cells were analyzed using an Attune NxT Flow Cytometer and data processed using FlowJo 10.0.8r1 (FLOWJO LLC), according to the manufacturer's instructions.
The reactivity of each mAb was monitored by FACs. The EM901 antibody, that recognizes BCMA, robustly bound NCIH929 cells. […] Geometric means quantifying these binding interactions are shown (FIG. 4).

[2] = biological target: T2, TACI; experiment: flow cytometry, dose response on NUDHL1 cells
Description: as §1
(§2) The reactivity of each mAb was monitored by FACs. […] Geometric means quantifying these binding interactions are shown (FIG. 5).

[3] = biological target: T3, BAFF receptor; experiment: flow cytometry, dose response on NUDHL1 cells
Description: as §1, §2

[4] = biological target: T4, human TNFRSF12A; experiment: flow cytometry on Hek293 cells stably transfected with human TNFRSF12A
Description: as §1
The reactivity of each antibody was monitored by FACs. An anti-TNFRSF12A antibody stained Hek293-TNFRSF12A cells, indicative of TNFRSF12A expression. […] Geometric means quantifying these binding interactions are shown (FIG. 3).

[5] = biological target: T1, human BCMA; experiment: flow cytometry on C6 cells stably transfected with human BCMA, 0.4 ug/ml antibody
Description: as §1
(§3) The reactivity of each antibody was monitored by FACs. […] Geometric mean values quantifying these binding interactions are included (FIG. 2).

[6] = biological target: T1, human BCMA; experiment: flow cytometry on C6 cells expressing human BCMA
Description: as §1, §3

Binder	binding result [1]	binding result [2]	binding result [3]	binding result [4]	binding result [5]	binding result [6]
320111 (antibody, IgG1, V domains shown) VH: QLPLQESGPGLVKPSETLSLTCTVSGGSIRSSSYYWGWIRQPPGKGLEWIGTIYYSGSTYYNPSLKSRVTISVDTSKNQLSLKLSSVTAADTAVYYCARPYYDSSGYYYYWGQGTLVTVSS VL: not shown	binds	no binding	no binding	no binding (tested: 0.4 ug/ml)	–	–
319883 (antibody, IgG1, V domains shown) VH: QLQLQESGPGLVKPSDTLSLTCTVSGGSISSSNSYWGWIRQSPGRGLEWIGRIYYSGITHYNPSLKSRVTISVDTSKNQFSLKLSSVTAADTAVYYCASPYKWNDGNFFGWGQGTLVTVSS VL: not shown	–	–	–	no binding (tested: 0.4 ug/ml)	binds	–
319966 (antibody, IgG1, V domains shown, also called human IgG antibody 319966) VH: QLQLQESGPGLVKPSETLSLTCTVSGSSISRSNYYWGWIRQPPGKGLEWIGTFYYSGTTYYNPSLKSRVTISEDTSKKQLSLNLRSVTAADTAVYYCARPSGYTTSWGQGTLVTVSS VL: not shown	binds	–	–	no binding (tested: 0.4 ug/ml)	–	–

The remaining lines, values ahead:

binding result [1]	binding result [2]	binding result [3]	binding result [4]	binding result [5]	binding result [6]	Binder
–	–	–	no binding (tested: 0.4 ug/ml)	binds	–	320199 (antibody, IgG1, V domains shown, also called human IgG antibody 320199) VH: QLQLQESGPGLVKPSETLSLTCTVSGGSISSSNSYWGWIRQSPGRGLEWIGRIYYSGITHYNPSLKSRVTISVDTSKNQFSLKLSSVTAADTAVYYCASPYKWNDGNFFGWGQGTLVTVSS VL: not shown
–	no binding	no binding	no binding (tested: 0.4 ug/ml)	–	binds	320262 (antibody, IgG1, V domains shown) VH: QLQLQESGPGLVKPSETLSLTCTVSGGSISNSNYYWGWIRQPPGKGLEWIGNIYYSGRTYYTPSLKSRVTISEDTSKNQFSLKVRSVTVADTGVYYCARPDYYGSGTIAWGQGTLVTVSS VL: not shown
